Laboratory results: article PMC3384312 (Nucleic Acids Research, 2012)
One block for each binder: values may come before it. 5‑acetamidofluorescein = fluorescein label from 5-iodoacetamidofluorescein attached at Cys

Experiments:
MEF2A (1-95) [1] = target: T1, MEF2A (1-95) (UniProt Q02078 1-95); assay: fluorescence polarisation
T1 sequence: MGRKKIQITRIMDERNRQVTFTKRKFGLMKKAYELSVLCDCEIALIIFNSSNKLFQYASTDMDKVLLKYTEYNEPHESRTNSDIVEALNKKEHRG

crystal structure = target: the molecule itself; assay: crystal structure
MEF2A (1-95) [2] = target: T1, MEF2A (1-95); assay: SPR

binding result (MEF2A (1-95) [1]): binds
B1: HDAC4 fragment (AA 155-218) labeled by 5-Iodoacetamidofluorescein via Cys194 (domain or fragment, UniProt P56524 155-218, looked up)
chain: LKNKEKGKESAVASTEVKMKLQEFVLNKKKALAHRNLNHC(5‑acetamidofluorescein)ISSDPRYWYGKTQHSSLDQSSPPQ

B2: MEF2A (1-78) (domain or fragment)
chain: MGRKKIQITRIMDERNRQVTFTKRKFGLMKKAYELSVLCDCEIALIIFNSSNKLFQYASTDMDKVLLKYTEYNEPHES
binding result (crystal structure): binds

binding result (MEF2A (1-95) [2]): binds
B3: HDAC4 (AA 155-220) (domain or fragment)
chain: LKNKEKGKESAVASTEVKMKLQEFVLNKKKALAHRNLNHCISSDPRYWYGKTQHSSLDQSSPPQSG
